Measured values: patent US20060127393A1 (Amgen, published 2006)

Key:
[1] = target: T1, CNBr2 fragment of human Dkk-1 (human, UniProt O94907 32-122; O94907 127-178); experiment: BiaCore
T1 construct: Two peptides held together by disulfide bonds; represents disulfide domain 1
T1 sequence 1: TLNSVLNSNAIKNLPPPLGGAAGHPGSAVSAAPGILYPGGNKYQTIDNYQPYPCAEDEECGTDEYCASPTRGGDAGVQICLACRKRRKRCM
T1 sequence 2: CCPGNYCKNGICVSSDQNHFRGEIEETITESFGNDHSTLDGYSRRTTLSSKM
Method: To characterize this conformational epitope, a strategy was applied that involved fragmenting human Dkk-1 with cyanogen bromide (CNBr) and several different proteases, then testing the resulting fragments to see whether they could still bind to the 11H10 antibody. The resulting data permitted the location of the epitope to be determined. In brief, the peptide digests were incubated with or without the antibody, passed through a 10 K cut-off membrane to trap any peptides that had become bound to the antibody (˜150,000 Da), then subjected to HPLC peptide mapping. […] The individual HPLC peaks were collected and the peptides identified and mapped by N-terminal sequencing. To determine if the peptides could bind 11H10, they were subjected to real time biospecific interaction assays with a BiaCore work station, using Protein A-trapped anti-Dkk-1 antibody as a biosensor for binding.
CNBr cleavage of hDkk-1 generated two large fragments, CNBr1 and CNBr2. These represented, respectively, disulfide domain 2 and disulfide domain 1. […] CNBr2 similarly consisted of two peptides (amino acids 32-122 of SEQ ID NO:2 and amino acids 127-178 of SEQ ID NO:2), also held together by disulfide bonds. […] Thus, it was concluded that 11H10 binds to an epitope located in disulfide domain 2 of Dkk-1.

[2] = target: T2, human Dkk-1 (human, UniProt O94907 32-266, carbohydrate moieties attached to Asn256); experiment: cell-based or functional assay
T2 sequence: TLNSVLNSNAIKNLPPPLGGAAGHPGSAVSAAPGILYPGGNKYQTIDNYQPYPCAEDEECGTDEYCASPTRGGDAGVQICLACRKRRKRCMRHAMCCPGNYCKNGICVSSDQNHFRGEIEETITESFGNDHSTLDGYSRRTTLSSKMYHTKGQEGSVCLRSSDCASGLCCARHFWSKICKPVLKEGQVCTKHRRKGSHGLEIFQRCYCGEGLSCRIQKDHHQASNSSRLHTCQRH

[3] = target: rat Dkk-1 (rat); experiment: cell-based or functional assay
[4] = target: T3, murine Dkk-1 (mouse, UniProt O54908 32-272); experiment: cell-based or functional assay
T3 sequence: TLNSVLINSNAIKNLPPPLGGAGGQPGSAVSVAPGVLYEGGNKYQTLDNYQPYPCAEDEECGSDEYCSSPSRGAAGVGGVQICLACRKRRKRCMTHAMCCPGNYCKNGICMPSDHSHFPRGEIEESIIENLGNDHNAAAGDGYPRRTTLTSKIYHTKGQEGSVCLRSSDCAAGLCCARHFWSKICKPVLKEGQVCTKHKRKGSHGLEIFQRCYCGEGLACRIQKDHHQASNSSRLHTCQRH

[5] = target: T2, human Dkk-1; experiment: SPR, BiaCore 2000, Dkk-1 immobilized on CM5 chip, antibody injected
Method: (§1) Kinetic analyses were performed to study the binding of the 11H10 and 1F11 antibodies to Dkk-1 using BiaCore 2000 (BIACORE, Uppsala, Sweden). Rat Dkk-1 (260 μg/ml), murine Dkk-1 (690 μg/ml) and human Dkk-1(900 μg/ml) were immobilized on a CM5 chip surface, and various concentrations (0.78 nM to about 100 nM) of the antibodies were injected over the immobilized Dkk-1 surfaces. The binding sensorgrams were analyzed using BIAevaluation 3.2.

[6] = target: rat Dkk-1 (rat); experiment: as above
Method: as §1

[7] = target: T3, murine Dkk-1; experiment: as above
Method: as §1

[8] = target: T2, human Dkk-1; experiment: cell-based or functional assay; remark: listed apart in the source
[9] = target: T3, murine Dkk-1; experiment: cell-based or functional assay; remark: listed apart in the source
[10] = target: T2, human Dkk-1; experiment: KinExA 3000 equilibrium binding in solution, Dkk-1-coated beads
Source text: (§2) It was apparent from the BiaCore results that 11H10 had the higher affinity for Dkk-1, and that its affinity for target exceeded the sensitivity limits of the BiaCore assay. Accordingly, the affinity of binding of 11H10 to Dkk-1 was further assessed by an equilibrium binding analysis using the more sensitive KinExA® 3000 (Sapidyne Instruments Inc., Boise, Id.). For these measurements, Reacti-Gel 6× beads (Pierce, Rockford, Ill.) were pre-coated with either mouse, rat or human Dkk-1 and blocked with BSA. One hundred pM, 300 pM, or 1000 pM of the 11H10 antibody was mixed with various concentrations of human, mouse or rat Dkk-1, ranging in concentration from 1 pM to 50 nM, and equilibrated at room temperature for 8 hours. The mixtures were then passed over the Dkk-1-coated beads. The amount of bead-bound anti-Dkk-1 antibody was quantified using goat anti-rat-IgG antibody labeled with a fluorescent tag (Cy5; Jackson Immuno Research, West Grove, Pa.). The amount of fluorescent signal measured was proportional to the concentration of free anti-Dkk-1 antibody in each reaction mixture at equilibrium. The dissociation equilibrium constant (Kd) was obtained from nonlinear regression of the competition curves using a dual-curve one-site homogeneous binding model using the KinExA software.

[11] = target: rat Dkk-1 (rat); experiment: as above
Source text: as §2

[12] = target: T3, murine Dkk-1; experiment: as above
Source text: as §2

B1: 11H10 monoclonal antibody (rat) (antibody, IgG1, V domains shown)
VH: EVQLVESGGGLVQPANSLKLSCAASGFTFSDYAMAWVRQSPKKGLEWVATIIYDGSSTYYRDSVKGRFTISRDNAKSTLYLQMDSLRSEDTATYYCATGLGIATDYFDYWGQGVLVTVSS
VL: DIRMTQSPASLSASLGETVNIECLASEDIYSDLAWYQQKPGKSPQLLIYNANSLQNGVPSRFSGSGSGTQYSLKINSLQSEDVATYFCQQYNNYPPTFGGGTKLELKR
notes: Rat hybridoma antibody of the IgG1 isotype; also called rat 11H10; L1H1
- binding result [1]: no binding
- EC50 (nM), TCF-lef luciferase assay [2]: 4 nM
- EC50 (nM), TCF-lef luciferase assay [3]: 5 nM
- EC50 (nM), TCF-lef luciferase assay [4]: 11.5 nM
- Kd [5]: < 0.1 nM
- koff [5]: < 5e-05 s⁻¹
- kon [5]: 52000 M⁻¹ s⁻¹
- Kd [6]: 0.29 nM
- koff [6]: 1.54e-05 s⁻¹
- kon [6]: 54000 M⁻¹ s⁻¹
- Kd [7]: < 0.1 nM
- koff [7]: < 5e-05 s⁻¹
- kon [7]: 54000 M⁻¹ s⁻¹
- EC50 (nM), restoring ALP activity in ST2 cells given Wnt3a and Dkk-1 [8]: 3.5 nM
- EC50 (nM), restoring ALP activity in ST2 cells given Wnt3a and Dkk-1 [9]: 6.1 nM
- Kd [10]: 0.13 nM
- Kd [11]: 0.54 nM
- Kd [12]: 0.165 nM
